The experiment concerns the target GCSF receptor (rat, endogenous, on neurons / in cortex tissue) (rat) (UniProt D4A3R0). Briefly: cell-based or functional assay.
Sequence of UniProt D4A3R0 (D4A3R0 entry or part of it limits assumed, form in doubt): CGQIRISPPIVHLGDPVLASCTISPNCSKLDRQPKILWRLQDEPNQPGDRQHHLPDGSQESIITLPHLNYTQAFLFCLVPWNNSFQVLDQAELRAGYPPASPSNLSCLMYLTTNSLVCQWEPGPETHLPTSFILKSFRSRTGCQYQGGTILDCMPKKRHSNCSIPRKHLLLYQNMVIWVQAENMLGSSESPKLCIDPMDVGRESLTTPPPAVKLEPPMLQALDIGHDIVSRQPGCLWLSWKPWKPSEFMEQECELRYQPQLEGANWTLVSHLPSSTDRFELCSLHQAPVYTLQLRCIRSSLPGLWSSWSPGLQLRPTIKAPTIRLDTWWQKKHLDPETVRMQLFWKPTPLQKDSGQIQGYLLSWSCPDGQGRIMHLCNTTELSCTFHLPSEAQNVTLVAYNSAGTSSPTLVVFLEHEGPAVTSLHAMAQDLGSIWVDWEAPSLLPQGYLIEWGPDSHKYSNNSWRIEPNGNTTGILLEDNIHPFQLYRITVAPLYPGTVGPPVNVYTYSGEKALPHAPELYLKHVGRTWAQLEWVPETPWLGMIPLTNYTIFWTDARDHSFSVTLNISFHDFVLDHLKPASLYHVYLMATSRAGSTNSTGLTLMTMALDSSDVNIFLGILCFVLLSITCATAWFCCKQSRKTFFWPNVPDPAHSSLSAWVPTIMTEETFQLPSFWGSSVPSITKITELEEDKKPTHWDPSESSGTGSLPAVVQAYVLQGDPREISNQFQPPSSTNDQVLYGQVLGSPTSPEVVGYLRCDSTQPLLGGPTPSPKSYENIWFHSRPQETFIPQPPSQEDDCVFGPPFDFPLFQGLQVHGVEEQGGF

In turn, “recombinant human GCSF, Neupogen (Amgen) (from UniProt P09919 31-207) (ligand)” yielded an STAT3 nuclear translocation in neurons of the penumbra, percent of STAT3 positive neurons from all neurons (GCSF treated rats versus untreated controls) (percent of STAT3 positive neurons) of 34.4.
